Assays:
[1] = target: mycoplasma pneumonia P30 (purified protein P30Ag produced by expressing amino acids 96-274 with Escherichia coli) (Mycoplasma pneumoniae) (UniProt P75330); assay: ELISA, P30Ag coated at 4 ng/mL, antibody 5 ug/mL, anti-mouse IgG-peroxidase
[2] = target: mycoplasma pneumonia P30 (purified protein P30Ag produced by expressing amino acids 96-274 with Escherichia coli) (Mycoplasma pneumoniae) (UniProt P75330); assay: immunochromatography sandwich (Com. Ex. 8), label P30(a), detection P30(b); analyte P30Ag
[3] = target: mycoplasma pneumonia P30 (purified protein P30Ag produced by expressing amino acids 96-274 with Escherichia coli) (Mycoplasma pneumoniae) (UniProt P75330); assay: immunochromatography sandwich (Com. Ex. 9), label P30(b), detection P30(b); analyte P30Ag
[4] = target: full-length protein mycoplasma pneumonia P30 (amino acids 1-274; SEQ ID NO: 1) (Mycoplasma pneumoniae) (UniProt P75330); assay: ELISA, full-length P30 coated, 5 ug/mL P30(b), no peptide (0 point of the peptide 1 series)
[5] = target: full-length protein mycoplasma pneumonia P30 (amino acids 1-274; SEQ ID NO: 1) (Mycoplasma pneumoniae) (UniProt P75330); assay: ELISA, full-length P30 coated, 5 ug/mL P30(b), no peptide (0 point of the peptide 2 series)
[6] = target: P30 protein of Mycoplasma pneumoniae as present in Mycoplasma pneumoniae analytes (deactivated Mycoplasma pneumoniae Antigen (FH), Meridian; pharyngeal swabs of infected subjects) (Mycoplasma pneumoniae) (UniProt P75330); assay: immunochromatography sandwich (Com. Ex. 1), label P30(a), detection P30(b); pharyngeal swab Subject 1
[7] = target: P30 protein of Mycoplasma pneumoniae as present in Mycoplasma pneumoniae analytes (deactivated Mycoplasma pneumoniae Antigen (FH), Meridian; pharyngeal swabs of infected subjects) (Mycoplasma pneumoniae) (UniProt P75330); assay: immunochromatography sandwich (Com. Ex. 1), label P30(a), detection P30(b); pharyngeal swab Subject 2
[8] = target: P30 protein of Mycoplasma pneumoniae as present in Mycoplasma pneumoniae analytes (deactivated Mycoplasma pneumoniae Antigen (FH), Meridian; pharyngeal swabs of infected subjects) (Mycoplasma pneumoniae) (UniProt P75330); assay: immunochromatography sandwich (Com. Ex. 2), label P30(b), detection P30(b); pharyngeal swab Subject 1
[9] = target: P30 protein of Mycoplasma pneumoniae as present in Mycoplasma pneumoniae analytes (deactivated Mycoplasma pneumoniae Antigen (FH), Meridian; pharyngeal swabs of infected subjects) (Mycoplasma pneumoniae) (UniProt P75330); assay: immunochromatography sandwich (Com. Ex. 2), label P30(b), detection P30(b); pharyngeal swab Subject 2
[10] = target: P30 protein of Mycoplasma pneumoniae as present in Mycoplasma pneumoniae analytes (deactivated Mycoplasma pneumoniae Antigen (FH), Meridian; pharyngeal swabs of infected subjects) (Mycoplasma pneumoniae) (UniProt P75330); assay: immunochromatography sandwich (Com. Ex. 7), label P30(b), detection P30(b); pharyngeal swab Subject 1
[11] = target: P30 protein of Mycoplasma pneumoniae as present in Mycoplasma pneumoniae analytes (deactivated Mycoplasma pneumoniae Antigen (FH), Meridian; pharyngeal swabs of infected subjects) (Mycoplasma pneumoniae) (UniProt P75330); assay: immunochromatography sandwich (Com. Ex. 7), label P30(b), detection P30(b); pharyngeal swab Subject 2
[12] = target: mycoplasma pneumonia P30 (purified protein P30Ag produced by expressing amino acids 96-274 with Escherichia coli) (Mycoplasma pneumoniae) (UniProt P75330); assay: immunochromatography sandwich, P30(b)-gold label and P30(b) detection line, P30Ag 10 pg/mL, no peptide
[13] = target: P30 protein of Mycoplasma pneumoniae as present in Mycoplasma pneumoniae analytes (deactivated Mycoplasma pneumoniae Antigen (FH), Meridian; pharyngeal swabs of infected subjects) (Mycoplasma pneumoniae) (UniProt P75330); assay: immunochromatography sandwich (Com. Ex. 1), label P30(a), detection P30(b); deactivated Mycoplasma pneumoniae (FH)
[14] = target: P30 protein of Mycoplasma pneumoniae as present in Mycoplasma pneumoniae analytes (deactivated Mycoplasma pneumoniae Antigen (FH), Meridian; pharyngeal swabs of infected subjects) (Mycoplasma pneumoniae) (UniProt P75330); assay: immunochromatography sandwich (Com. Ex. 2), label P30(b), detection P30(b); deactivated Mycoplasma pneumoniae (FH)
[15] = target: P30 protein of Mycoplasma pneumoniae as present in Mycoplasma pneumoniae analytes (deactivated Mycoplasma pneumoniae Antigen (FH), Meridian; pharyngeal swabs of infected subjects) (Mycoplasma pneumoniae) (UniProt P75330); assay: immunochromatography sandwich (Com. Ex. 7), label P30(b), detection P30(b); deactivated Mycoplasma pneumoniae (FH)
[16] = target: P30 protein of Mycoplasma pneumoniae as present in Mycoplasma pneumoniae analytes (deactivated Mycoplasma pneumoniae Antigen (FH), Meridian; pharyngeal swabs of infected subjects) (Mycoplasma pneumoniae) (UniProt P75330); assay: immunochromatography sandwich (Com. Ex. 6), label P30(a), detection P30(b); pharyngeal swab Subject 1; Triton X-100/Tween 20 diluent
[17] = target: P30 protein of Mycoplasma pneumoniae as present in Mycoplasma pneumoniae analytes (deactivated Mycoplasma pneumoniae Antigen (FH), Meridian; pharyngeal swabs of infected subjects) (Mycoplasma pneumoniae) (UniProt P75330); assay: immunochromatography sandwich (Com. Ex. 6), label P30(a), detection P30(b); pharyngeal swab Subject 2; Triton X-100/Tween 20 diluent
[18] = target: P30 protein of Mycoplasma pneumoniae as present in Mycoplasma pneumoniae analytes (deactivated Mycoplasma pneumoniae Antigen (FH), Meridian; pharyngeal swabs of infected subjects) (Mycoplasma pneumoniae) (UniProt P75330); assay: immunochromatography sandwich (Com. Ex. 6), label P30(a), detection P30(b); deactivated Mycoplasma pneumoniae (FH); Triton X-100/Tween 20 diluent
[19] = target: antibody P30(a) (Fucal Research product Mp-P30-3-AB); assay: immunochromatography competition, 400 ng peptide 2 developed with P30Ag 10 pg/mL, P30(a) label and detection
[20] = target: antibody P30(b) (Fucal Research product Mp-P30-9-AB); assay: immunochromatography competition, 400 ng peptide 2 developed with P30Ag 10 pg/mL, P30(b) label and detection
[21] = target: antibody P30(a) (Fucal Research product Mp-P30-3-AB); assay: competitive inhibition ELISA, full-length P30 coated, 5 ug/mL P30(a) + peptide 2 at x1 the antibody concentration
[22] = target: antibody P30(b) (Fucal Research product Mp-P30-9-AB); assay: competitive inhibition ELISA, full-length P30 coated, 5 ug/mL P30(b) + peptide 2 at x1 the antibody concentration
[23] = target: antibody P30(a) (Fucal Research product Mp-P30-3-AB); assay: competitive inhibition ELISA, full-length P30 coated, 5 ug/mL P30(a) + peptide 2 at x10 the antibody concentration
[24] = target: antibody P30(a) (Fucal Research product Mp-P30-3-AB); assay: competitive inhibition ELISA, full-length P30 coated, 5 ug/mL P30(a) + peptide 2 at x20 the antibody concentration
[25] = target: antibody P30(a) (Fucal Research product Mp-P30-3-AB); assay: competitive inhibition ELISA, full-length P30 coated, 5 ug/mL P30(a) + peptide 2 at x40 the antibody concentration
[26] = target: antibody P30(a) (Fucal Research product Mp-P30-3-AB); assay: competitive inhibition ELISA, full-length P30 coated, 5 ug/mL P30(a) + peptide 2 at x80 the antibody concentration
[27] = target: antibody P30(b) (Fucal Research product Mp-P30-9-AB); assay: competitive inhibition ELISA, full-length P30 coated, 5 ug/mL P30(b) + peptide 2 at x10 the antibody concentration
[28] = target: antibody P30(b) (Fucal Research product Mp-P30-9-AB); assay: competitive inhibition ELISA, full-length P30 coated, 5 ug/mL P30(b) + peptide 2 at x20 the antibody concentration
[29] = target: antibody P30(b) (Fucal Research product Mp-P30-9-AB); assay: competitive inhibition ELISA, full-length P30 coated, 5 ug/mL P30(b) + peptide 2 at x40 the antibody concentration
[30] = target: antibody P30(b) (Fucal Research product Mp-P30-9-AB); assay: competitive inhibition ELISA, full-length P30 coated, 5 ug/mL P30(b) + peptide 2 at x80 the antibody concentration
[31] = target: antibody P30(a) (Fucal Research product Mp-P30-3-AB); assay: competitive inhibition ELISA, full-length P30 coated, 5 ug/mL P30(a) + peptide 2 at x160 the antibody concentration
[32] = target: antibody P30(a) (Fucal Research product Mp-P30-3-AB); assay: competitive inhibition ELISA, full-length P30 coated, 5 ug/mL P30(a) + peptide 2 at x320 the antibody concentration
[33] = target: antibody P30(a) (Fucal Research product Mp-P30-3-AB); assay: competitive inhibition ELISA, full-length P30 coated, 5 ug/mL P30(a) + peptide 2 at x640 the antibody concentration
[34] = target: antibody P30(b) (Fucal Research product Mp-P30-9-AB); assay: competitive inhibition ELISA, full-length P30 coated, 5 ug/mL P30(b) + peptide 2 at x160 the antibody concentration
[35] = target: antibody P30(b) (Fucal Research product Mp-P30-9-AB); assay: competitive inhibition ELISA, full-length P30 coated, 5 ug/mL P30(b) + peptide 2 at x320 the antibody concentration
[36] = target: antibody P30(b) (Fucal Research product Mp-P30-9-AB); assay: competitive inhibition ELISA, full-length P30 coated, 5 ug/mL P30(b) + peptide 2 at x640 the antibody concentration
[37] = target: antibody P30(a) (Fucal Research product Mp-P30-3-AB); assay: competitive inhibition ELISA, full-length P30 coated at 4 ng/mL, 5 ug/mL P30(a) + peptide 2 at 40 times the antibody amount
[38] = target: antibody P30(b) (Fucal Research product Mp-P30-9-AB); assay: competitive inhibition ELISA, full-length P30 coated at 10 ng/mL, 5 ug/mL P30(b) + peptide 2 at 40 times the antibody amount

antibody P30(b) (Fucal Research product Mp-P30-9-AB)
absorbance at 450 nm after subtracting the blank [1]: 0.061 Abs
Color intensity (mAbs) [2]: 31.8 mAbs
Color intensity (mAbs) [3]: 24.3 mAbs
Color intensity (Abs) [4]: 0.208 Abs
Color intensity (Abs) [5]: 0.208 Abs
Color intensity (mAbs) [6]: 16.3 mAbs
Color intensity (mAbs) [7]: 7.9 mAbs
Color intensity (mAbs) [8]: 8.9 mAbs
Color intensity (mAbs) [9]: 6.1 mAbs
Color intensity (mAbs) [10]: 15.2 mAbs
Color intensity (mAbs) [11]: 8.9 mAbs
Color intensity after 15 min [12]: 58.2 mAbs
Color intensity (mAbs) [13]: 79.4 mAbs
Color intensity (mAbs) [14]: 18.9 mAbs
Color intensity (mAbs) [15]: 40.5 mAbs
Color intensity (mAbs) [16]: 29.8 mAbs
Color intensity (mAbs) [17]: 13.6 mAbs
Color intensity (mAbs) [18]: 159 mAbs

PGMAPRPGFPPQPGMAPR [Peptide 2 (SEQ ID NO: 7: …)]
Color intensity after 15 min [19]: 96.7 mAbs
Color intensity after 15 min [20]: 31.3 mAbs
Color intensity (Abs) [21]: 0.401 Abs
Percentage reduction of color intensity (%) [21]: 2%
Color intensity (Abs) [22]: 0.199 Abs
Percentage reduction of color intensity (%) [22]: 4%
Color intensity (Abs) [23]: 0.341 Abs
Percentage reduction of color intensity (%) [23]: 17%
Color intensity (Abs) [24]: 0.29 Abs
Percentage reduction of color intensity (%) [24]: 29%
Color intensity (Abs) [25]: 0.26 Abs
Percentage reduction of color intensity (%) [25]: 37%
Color intensity (Abs) [26]: 0.199 Abs
Percentage reduction of color intensity (%) [26]: 52%
Color intensity (Abs) [27]: 0.184 Abs
Percentage reduction of color intensity (%) [27]: 12%
Color intensity (Abs) [28]: 0.186 Abs
Percentage reduction of color intensity (%) [28]: 11%
Color intensity (Abs) [29]: 0.163 Abs
Percentage reduction of color intensity (%) [29]: 22%
Color intensity (Abs) [30]: 0.133 Abs
Percentage reduction of color intensity (%) [30]: 36%
Color intensity (Abs) [31]: 0.172 Abs
Percentage reduction of color intensity (%) [31]: 58%
Color intensity (Abs) [32]: 0.16 Abs
Percentage reduction of color intensity (%) [32]: 61%
Color intensity (Abs) [33]: 0.18 Abs
Percentage reduction of color intensity (%) [33]: 56%
Color intensity (Abs) [34]: 0.125 Abs
Percentage reduction of color intensity (%) [34]: 40%
Color intensity (Abs) [35]: 0.11 Abs
Percentage reduction of color intensity (%) [35]: 47%
Color intensity (Abs) [36]: 0.114 Abs
Percentage reduction of color intensity (%) [36]: 45%
percentage reduction of absorbance [37]: > 30%
percentage reduction of absorbance [38]: 22%
